Results from doi:10.1101/2025.06.13.659557.
Where two headings read alike, the source gives them in different places.

What was measured:
GFP-RalB [1] = target: GFP-RalB (UniProt P11234); test: pull-down
[2] = target: angiomotin (GFP-fused bait) (UniProt Q4VCS5); test: pull-down
GFP-RalA [3] = target: GFP-RalA (UniProt P11233); test: pull-down
GFP-RalB [4] = target: GFP-RalB (UniProt P11234); test: pull-down; remark: listed apart in the source
GFP-RalA [5] = target: GFP-RalA (UniProt P11233); test: pull-down; remark: listed apart in the source
mCherry-RalB = mCherry-RalB (UniProt P11234); test: co-IP

UniProt P11233, sequence (P11233 whole entry): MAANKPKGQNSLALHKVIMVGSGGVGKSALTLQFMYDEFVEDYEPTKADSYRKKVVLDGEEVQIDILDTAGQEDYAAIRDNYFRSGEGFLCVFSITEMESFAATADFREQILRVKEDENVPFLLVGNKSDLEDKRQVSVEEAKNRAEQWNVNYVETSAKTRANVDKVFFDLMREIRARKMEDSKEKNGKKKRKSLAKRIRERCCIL
UniProt Q4VCS5, sequence (Q4VCS5 whole entry, the tested form may be a part): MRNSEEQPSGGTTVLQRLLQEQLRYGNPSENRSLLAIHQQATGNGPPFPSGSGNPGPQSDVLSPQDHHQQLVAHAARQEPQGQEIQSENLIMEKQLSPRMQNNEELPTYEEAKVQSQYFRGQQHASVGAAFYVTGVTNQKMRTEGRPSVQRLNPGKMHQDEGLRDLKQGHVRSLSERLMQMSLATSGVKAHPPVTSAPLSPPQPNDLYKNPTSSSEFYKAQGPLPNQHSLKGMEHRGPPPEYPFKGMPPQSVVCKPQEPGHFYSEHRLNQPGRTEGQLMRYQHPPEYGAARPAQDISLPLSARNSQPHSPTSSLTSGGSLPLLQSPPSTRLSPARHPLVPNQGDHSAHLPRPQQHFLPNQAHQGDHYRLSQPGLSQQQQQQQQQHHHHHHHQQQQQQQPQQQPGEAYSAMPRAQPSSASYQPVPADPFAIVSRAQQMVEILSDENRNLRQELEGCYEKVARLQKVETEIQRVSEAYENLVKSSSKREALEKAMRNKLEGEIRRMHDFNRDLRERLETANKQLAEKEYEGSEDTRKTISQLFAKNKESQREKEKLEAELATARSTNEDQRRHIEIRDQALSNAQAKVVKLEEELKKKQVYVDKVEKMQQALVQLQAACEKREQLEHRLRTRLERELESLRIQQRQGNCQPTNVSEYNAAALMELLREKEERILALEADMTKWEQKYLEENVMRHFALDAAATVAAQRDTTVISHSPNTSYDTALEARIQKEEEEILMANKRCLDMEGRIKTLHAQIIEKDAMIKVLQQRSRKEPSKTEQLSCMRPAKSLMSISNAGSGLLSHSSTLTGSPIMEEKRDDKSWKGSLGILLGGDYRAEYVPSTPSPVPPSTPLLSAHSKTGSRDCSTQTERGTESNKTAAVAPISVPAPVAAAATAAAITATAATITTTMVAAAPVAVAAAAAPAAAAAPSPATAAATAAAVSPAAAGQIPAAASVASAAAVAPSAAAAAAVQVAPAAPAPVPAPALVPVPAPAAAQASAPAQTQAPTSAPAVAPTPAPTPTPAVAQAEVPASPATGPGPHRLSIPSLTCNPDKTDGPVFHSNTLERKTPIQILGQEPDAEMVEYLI

fold binding over the GFP control (GFP-RalB [1]) | fold binding over the GFP control [2] | fold binding over the GFP control (GFP-RalA [3]) | fold binding over the GFP control (GFP-RalB [4]) | fold binding over the GFP control (GFP-RalA [5]) | Substance | percent reduction of RalB binding to Exo84 (mCherry-RalB) | percent reduction of RalB binding to Sec5 (mCherry-RalB)
7 fold | > 65 fold | 7 fold | > 50 fold | > 50 fold | Merlin-NanoLuc (from UniProt P35240 1-595) (natural protein) | – | –
– | – | – | – | – | Merlin-GFP (wild type) (from UniProt P35240 1-595) (natural protein) | 50% | 50%
